Laboratory results taken from US20190065668.

Biological target: fluorogenic KAHRP PEXEL peptide DABCYL-…-E-EDANS

B1: recombinant P. falciparum plasmepsin V (residues N80-R528) (protein)
chain: NASSDLYKYKLYGDIDEYAYYFLDIDIGKPSQRISLILDTGSSSLSFPCNGCKDCGIHMEKPYNLNYSKTSSILYCNKSNCPYGLKCVGNKCEYLQSYCEGSQIYGFYFSDIVTLPSYNNKNKISFEKLMGCHMHEESLFLHQQATGVLGFSLTKPNGVPTFVDLLFKHTPSLKPIYSICVSEHGGELIIGGYEPDYFLSNQKEKQKMDKSDNNSSNKGNVSIKLKNNDKNDDEENNSKDVIVSNNVEDIVWQAITRKYYYYIKIYGLDLYGTNIMDKKELDMLVDSGSTFTHIPENIYNQINYYLDILCIHDMTNIYEINKRLKLTNESLNKPLVYFEDFKTALKNIIQNENLCIKIVDGVQCWKSLENLPNLYITLSNNYKMIWKPSSYLYKKESFWCKGLEKQVNNKPILGLTFFKNKQVIFDLQQNQIAFIESKCPSNLTSSRPR
  Km: 20.2 µM and 6.0 µM for the P. falciparum and P. vivax enzymes, respectively
  cleavage of the fluorogenic peptide: demonstrated specific activity against the PEXEL substrates and cleaved the peptides after the P1 Leucine residue as expected

B2: recombinant P. vivax plasmepsin V (residues R35-R476), N-terminal fusion tag removed with TEV protease (protein)
chain: GTRSESTEGHSKDLLYKYKLYGDIDEYAYYFLDIDIGTPEQRISLILDTGSSSLSFPCAGCKNCGVHMENPFNLNNSKTSSILYCENEECPFKLNCVKGKCEYMQSYCEGSQISGFYFSDVVSVVSYNNERVTFRKLMGCHMHEESLFLYQQATGVLGMSLSKPQGIPTFVNLLFDNAPQLKQVFTICISENGGELIAGGYDPAYIVRRGGSKSVSGQGSGPVSESLSESGEDPQVALREAEKVVWENVTRKYYYYIKVRGLDMFGTNMMSSSKGLEMLVDSGSTFTHIPEDLYNKLNYFFDILCIQDMNNAYDVNKRLKMTNESFNNPLVQFDDFRKSLKSIIAKENMCVKIVDGVQCWKYLEGLPDLFVTLSNNYKMKWQPHSYLYKKESFWCKGIEKQVNNKPILGLTFFKNRQVIFDIQKNRIGFVDANCPSHPTHTRPR
  Km: 20.2 µM and 6.0 µM for the P. falciparum and P. vivax enzymes, respectively
  cleavage of the fluorogenic peptide: demonstrated specific activity against the PEXEL substrates and cleaved the peptides after the P1 Leucine residue as expected
